Experimental data published in US20080182978A1, “ANTI-NGF ANTIBODIES AND METHODS USING SAME” (RINAT NEUROSCIENCE CORP, priority 2002, published 2008).

Experiment: Dose response of E3 on body weight in arthritic rats (Example 9)
Assay type: in vivo, rat
Experimental: The ability of E3 to produce reduction in pain in arthritic rats was further investigated by examining the dose response relationship between E3 administration and pain reduction. Rats were treated with adjuvant to induce arthritis as described above. Ten rats not injected with adjuvant were used as non-arthritic controls. Fourteen days after adjuvant injection, animals were qualified into the study based on the criteria stated above, randomized into eight groups of ten rats and tested for the intensity of their vocalization response. They were then dosed on day 14 with saline, or 0.003 mg/kg, 0.01 mg/kg, 0.03 mg/kg, 0.1 mg/kg, 0.3 mg/kg, 1 mg/kg or 5 mg/kg of E3 antibody as described above. Animals were tested for their vocalization response on days 16, 18, 20, and 24. Animals were redosed with saline or the same dose of E3 on day 18 after the vocalization testing. Animals were also weighed each day, starting at day 14. Thus, animals were dosed twice with a given dose of antibody or saline on days 14 and 18, and assessed for pain five times, on days 14, 16, 18, 20 and 24. Data are shown in Tables 20-22 and in FIGS. 20-22.
The effect of treating animals with various doses of anti-NGF antibody E3 on body weight was statistically analyzed by using two-way ANOVA to compare the results obtained pairwise between arthritic animals treated with vehicle with those treated with a given dose of antibody E3. […] At all higher dose of E3, the difference between treated and untreated arthritic animals was significant (p= or <0.0001). […]

[1] = E3 0.003 mg/kg on days 14+18, day 14
[2] = E3 0.003 mg/kg on days 14+18, day 15
[3] = E3 0.003 mg/kg on days 14+18, day 16
[4] = E3 0.003 mg/kg on days 14+18, day 17
[5] = E3 0.003 mg/kg on days 14+18, day 18
[6] = E3 0.003 mg/kg on days 14+18, day 20
[7] = E3 0.003 mg/kg on days 14+18, day 21
[8] = E3 0.003 mg/kg on days 14+18, day 23
[9] = E3 0.003 mg/kg on days 14+18, day 24
[10] = E3 0.01 mg/kg on days 14+18, day 14
[11] = E3 0.01 mg/kg on days 14+18, day 15
[12] = E3 0.01 mg/kg on days 14+18, day 16
[13] = E3 0.01 mg/kg on days 14+18, day 17
[14] = E3 0.01 mg/kg on days 14+18, day 18
[15] = E3 0.01 mg/kg on days 14+18, day 20
[16] = E3 0.01 mg/kg on days 14+18, day 21
[17] = E3 0.01 mg/kg on days 14+18, day 23
[18] = E3 0.01 mg/kg on days 14+18, day 24
[19] = E3 0.03 mg/kg on days 14+18, day 14
[20] = E3 0.03 mg/kg on days 14+18, day 15
[21] = E3 0.03 mg/kg on days 14+18, day 16
[22] = E3 0.03 mg/kg on days 14+18, day 17
[23] = E3 0.03 mg/kg on days 14+18, day 18
[24] = E3 0.03 mg/kg on days 14+18, day 20
[25] = E3 0.03 mg/kg on days 14+18, day 21
[26] = E3 0.03 mg/kg on days 14+18, day 23
[27] = E3 0.03 mg/kg on days 14+18, day 24
[28] = E3 0.1 mg/kg on days 14+18, day 14
[29] = E3 0.1 mg/kg on days 14+18, day 15

B1: E3: humanized, affinity matured anti-NGF antagonist antibody; variable regions SEQ ID NO:1 and 2; human IgG2a (A330P331 to S330S331), kappa (antibody, V domains shown)
VH: QVQLQESGPGLVKPSETLSLTCTVSGFSLIGYDLNWIRQPPGKGLEWIGIIWGDGTTDYNSAVKSRVTISKDTSKNQFSLKLSSVTAADTAVYYCARGGYWYATSYYFDYWGQGTLVTVS
VL: DIQMTQSPSSLSASVGDRVTITCRASQSISNNLNWYQQKPGKAPKLLIYYTSRFHSGVPSRFSGSGSGTDFTFTISSLQPEDIATYYCQQEHTLPYTFGQGTKLEIKRT
modifications: human IgG2a constant (A330S/P331S) and kappa constant missing
For B1, the “Body weight normalized to day 0” value (E3 0.003 mg/kg on days 14+18, day 0) was 100.00, the “Body weight normalized to day 0” value (E3 0.003 mg/kg on days 14+18, day 1) was 98.37 and the “Body weight normalized to day 0” value (E3 0.003 mg/kg on days 14+18, day 2) was 102.47. For the same molecule, the “Body weight normalized to day 0” value (E3 0.003 mg/kg on days 14+18, day 3) was 106.54, the “Body weight normalized to day 0” value (E3 0.003 mg/kg on days 14+18, day 4) was 110.09 and the “Body weight normalized to day 0” value (E3 0.003 mg/kg on days 14+18, day 7) was 121.29. The “Body weight normalized to day 0” value (E3 0.003 mg/kg on days 14+18, day 8) was 124.44, the “Body weight normalized to day 0” value (E3 0.003 mg/kg on days 14+18, day 9) was 125.91 and the “Body weight normalized to day 0” value (E3 0.003 mg/kg on days 14+18, day 10) was 123.30. The “Body weight normalized to day 0” value (E3 0.003 mg/kg on days 14+18, day 11) was 119.55, the “Body weight normalized to day 0” value [1] was 111.50 and the “Body weight normalized to day 14” value [1] was 100.00. For the same molecule, the “Body weight normalized to day 0” value [2] was 110.63, the “Body weight normalized to day 14” value [2] was 99.20 and the “Body weight normalized to day 0” value [3] was 111.08. For the same molecule, the “Body weight normalized to day 14” value [3] was 99.58, the “Body weight normalized to day 0” value [4] was 112.06 and the “Body weight normalized to day 14” value [4] was 100.46. The “Body weight normalized to day 0” value [5] was 112.60, the “Body weight normalized to day 14” value [5] was 100.90 and the “Body weight normalized to day 0” value [6] was 114.17. For the same molecule, the “Body weight normalized to day 14” value [6] was 102.26, the “Body weight normalized to day 0” value [7] was 115.25 and the “Body weight normalized to day 14” value [7] was 103.16. The “Body weight normalized to day 0” value [8] was 118.48, the “Body weight normalized to day 14” value [8] was 106.09 and the “Body weight normalized to day 0” value [9] was 118.58. The “Body weight normalized to day 14” value [9] was 106.16, the “Body weight normalized to day 0” value (E3 0.01 mg/kg on days 14+18, day 0) was 100.00 and the “Body weight normalized to day 0” value (E3 0.01 mg/kg on days 14+18, day 1) was 98.86. The “Body weight normalized to day 0” value (E3 0.01 mg/kg on days 14+18, day 2) was 102.61, the “Body weight normalized to day 0” value (E3 0.01 mg/kg on days 14+18, day 3) was 106.29 and the “Body weight normalized to day 0” value (E3 0.01 mg/kg on days 14+18, day 4) was 110.61. For the same molecule, the “Body weight normalized to day 0” value (E3 0.01 mg/kg on days 14+18, day 7) was 121.59, the “Body weight normalized to day 0” value (E3 0.01 mg/kg on days 14+18, day 8) was 124.47 and the “Body weight normalized to day 0” value (E3 0.01 mg/kg on days 14+18, day 9) was 125.82. The “Body weight normalized to day 0” value (E3 0.01 mg/kg on days 14+18, day 10) was 123.87, the “Body weight normalized to day 0” value (E3 0.01 mg/kg on days 14+18, day 11) was 121.20 and the “Body weight normalized to day 0” value [10] was 111.80. For the same molecule, the “Body weight normalized to day 14” value [10] was 100.00, the “Body weight normalized to day 0” value [11] was 110.85 and the “Body weight normalized to day 14” value [11] was 99.18. The “Body weight normalized to day 0” value [12] was 110.98, the “Body weight normalized to day 14” value [12] was 99.33 and the “Body weight normalized to day 0” value [13] was 111.42. For the same molecule, the “Body weight normalized to day 14” value [13] was 99.69, the “Body weight normalized to day 0” value [14] was 112.54 and the “Body weight normalized to day 14” value [14] was 100.69. The “Body weight normalized to day 0” value [15] was 114.82, the “Body weight normalized to day 14” value [15] was 102.70 and the “Body weight normalized to day 0” value [16] was 114.76. For the same molecule, the “Body weight normalized to day 14” value [16] was 102.63, the “Body weight normalized to day 0” value [17] was 116.76 and the “Body weight normalized to day 14” value [17] was 104.41. The “Body weight normalized to day 0” value [18] was 116.56, the “Body weight normalized to day 14” value [18] was 104.23 and the “Body weight normalized to day 0” value (E3 0.03 mg/kg on days 14+18, day 0) was 100.00. For the same molecule, the “Body weight normalized to day 0” value (E3 0.03 mg/kg on days 14+18, day 1) was 98.67, the “Body weight normalized to day 0” value (E3 0.03 mg/kg on days 14+18, day 2) was 102.05 and the “Body weight normalized to day 0” value (E3 0.03 mg/kg on days 14+18, day 3) was 105.31. The “Body weight normalized to day 0” value (E3 0.03 mg/kg on days 14+18, day 4) was 109.24, the “Body weight normalized to day 0” value (E3 0.03 mg/kg on days 14+18, day 7) was 117.15 and the “Body weight normalized to day 0” value (E3 0.03 mg/kg on days 14+18, day 8) was 118.52. For the same molecule, the “Body weight normalized to day 0” value (E3 0.03 mg/kg on days 14+18, day 9) was 118.60, the “Body weight normalized to day 0” value (E3 0.03 mg/kg on days 14+18, day 10) was 115.26 and the “Body weight normalized to day 0” value (E3 0.03 mg/kg on days 14+18, day 11) was 112.94. For the same molecule, the “Body weight normalized to day 0” value [19] was 108.37, the “Body weight normalized to day 14” value [19] was 100.00 and the “Body weight normalized to day 0” value [20] was 108.68. The “Body weight normalized to day 14” value [20] was 100.34, the “Body weight normalized to day 0” value [21] was 109.21 and the “Body weight normalized to day 14” value [21] was 100.89. The “Body weight normalized to day 0” value [22] was 110.16, the “Body weight normalized to day 14” value [22] was 101.80 and the “Body weight normalized to day 0” value [23] was 111.14. The “Body weight normalized to day 14” value [23] was 102.70, the “Body weight normalized to day 0” value [24] was 113.17 and the “Body weight normalized to day 14” value [24] was 104.51. The “Body weight normalized to day 0” value [25] was 113.80, the “Body weight normalized to day 14” value [25] was 105.08 and the “Body weight normalized to day 0” value [26] was 114.93. The “Body weight normalized to day 14” value [26] was 106.14, the “Body weight normalized to day 0” value [27] was 114.99 and the “Body weight normalized to day 14” value [27] was 106.23. For the same molecule, the “Body weight normalized to day 0” value (E3 0.1 mg/kg on days 14+18, day 0) was 100.00, the “Body weight normalized to day 0” value (E3 0.1 mg/kg on days 14+18, day 1) was 99.31 and the “Body weight normalized to day 0” value (E3 0.1 mg/kg on days 14+18, day 2) was 102.87. The “Body weight normalized to day 0” value (E3 0.1 mg/kg on days 14+18, day 3) was 106.26, the “Body weight normalized to day 0” value (E3 0.1 mg/kg on days 14+18, day 4) was 110.20 and the “Body weight normalized to day 0” value (E3 0.1 mg/kg on days 14+18, day 7) was 120.50. For the same molecule, the “Body weight normalized to day 0” value (E3 0.1 mg/kg on days 14+18, day 8) was 123.48, the “Body weight normalized to day 0” value (E3 0.1 mg/kg on days 14+18, day 9) was 125.46 and the “Body weight normalized to day 0” value (E3 0.1 mg/kg on days 14+18, day 10) was 123.95. The “Body weight normalized to day 0” value (E3 0.1 mg/kg on days 14+18, day 11) was 121.98, the “Body weight normalized to day 0” value [28] was 113.90 and the “Body weight normalized to day 14” value [28] was 100.00. For the same molecule, the “Body weight normalized to day 0” value [29] was 113.66, the “Body weight normalized to day 14” value [29] was 99.83 and the “Body weight normalized to day 0” value (E3 0.1 mg/kg on days 14+18, day 16) was 115.06.
